According to patent publication US20240247080A1, “GLP1/GIP/NPY2 RECEPTOR TRIPLE AGONISTS” (Boehringer Ingelheim International GmbH, priority 2022, published 2024):
Starred links: 1 amine or outer side, 2 acyl side, 3 side chain; linkers in the order of their positions; H or OH if unused. Non-standard residues stand in square brackets, D forms with d. Groups on a side chain read outwards from the residue. No end group written: not given here. *: point of attachment. C20 diacid = O=C(O)CCCCCCCCCCCCCCCCCCC(=O)*; C18 diacid = O=C(O)CCCCCCCCCCCCCCCCC(=O)*; γGlu = O=C(O)[C@H](CCC(=O)[*:2])N[*:1]; εLys = N[C@@H](CCCCN[*:1])C(=O)[*:2]; AEEA = NCCOCCOCC(=O)O; Aib = CC(C)(N)C(=O)O; OEG = OEG spacer

T1: human neuropeptide Y2 receptor (human, UniProt P49146 1-381)
T1 sequence (looked up): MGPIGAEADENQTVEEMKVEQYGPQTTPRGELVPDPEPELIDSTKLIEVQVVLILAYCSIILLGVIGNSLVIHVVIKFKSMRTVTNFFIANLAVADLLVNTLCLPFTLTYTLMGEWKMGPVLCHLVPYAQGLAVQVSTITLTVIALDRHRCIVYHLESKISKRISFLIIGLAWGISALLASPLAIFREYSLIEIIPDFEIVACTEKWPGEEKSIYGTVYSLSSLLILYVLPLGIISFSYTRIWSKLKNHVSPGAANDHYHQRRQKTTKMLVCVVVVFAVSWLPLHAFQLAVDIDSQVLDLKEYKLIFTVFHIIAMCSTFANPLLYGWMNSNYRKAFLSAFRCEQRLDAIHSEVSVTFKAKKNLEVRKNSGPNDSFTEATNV

T2: human GIP receptor (human, UniProt P48546 22-466)
T2 sequence (looked up): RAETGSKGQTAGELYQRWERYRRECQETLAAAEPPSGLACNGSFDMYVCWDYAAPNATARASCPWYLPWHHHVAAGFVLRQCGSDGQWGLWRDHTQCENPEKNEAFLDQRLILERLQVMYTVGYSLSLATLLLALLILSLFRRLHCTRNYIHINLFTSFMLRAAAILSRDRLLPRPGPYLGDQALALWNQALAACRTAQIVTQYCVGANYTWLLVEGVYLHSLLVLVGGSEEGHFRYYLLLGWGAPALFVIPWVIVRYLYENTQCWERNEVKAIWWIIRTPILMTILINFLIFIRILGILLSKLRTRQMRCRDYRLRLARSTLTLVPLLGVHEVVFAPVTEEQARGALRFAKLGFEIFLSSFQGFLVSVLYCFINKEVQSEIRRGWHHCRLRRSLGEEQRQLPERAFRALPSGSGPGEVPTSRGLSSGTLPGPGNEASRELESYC

B1: Compound 288 (peptide)
peptide: Y[Aib]EGTFTSDYSI[Aib]LEKQAQ[Aib]AFVEWLIK([εLys-γGlu-γGlu-γGlu-γGlu-γGlu-γGlu-γGlu-C20 diacid])GGPSEGASLRHYYNWLTRQRY-NH2
modifications: also: TFA salt
B2: Compound 294 (peptide)
peptide: Y[Aib]EGTFTSDYSI[Aib]LEKQAQ[Aib]AFVEWLIK([γGlu-γGlu-γGlu-γGlu-C18 diacid])GGPSEGASLRHYYNWLTRQRY-NH2
modifications: also: TFA salt
B3: Compound 284 (peptide)
peptide: Y[Aib]EGTFTSDYSI[Aib]LEKQAQ[Aib]EFVEWLIK([AEEA-AEEA-γGlu-γGlu-γGlu-C18 diacid])GGPSEGASLRHYYNWLTRQRY-NH2
modifications: also: TFA salt
B4: Compound 302 (peptide)
peptide: Y[Aib]EGTFTSDYSI[Aib]LEKQAQ[Aib]AFVEWLIK([Glu-Glu-Glu-Glu-Glu-Glu-C18 diacid])GGPSEGASLRHYYNWLTRQRY-NH2
modifications: also: TFA salt
B5: Compound 296 (peptide)
peptide: Y[Aib]EGTFTSDYSI[Aib]LEKQAQ[Aib]AFVEWLIKGGPSEGASLRHYYNWLTRQRY-NH2
modifications: not fully specified (residue 28); also: TFA salt
B6: Compound 286 (peptide)
peptide: Y[Aib]EGTFTSDYSI[Aib]LEKQAQ[Aib]AFVEWLIKGGPSEGASLRHYYNWLTRQRY-NH2
modifications: not fully specified (residue 28); also: TFA salt
B7: Compound 300 (peptide)
peptide: Y[Aib]EGTFTSDYSI[Aib]LEKQAQ[Aib]AFVEWLIK([AEEA-γGlu-γGlu-γGlu-C18 diacid])GGPSEGASLRHYYNWLTRQRY-NH2
modifications: also: TFA salt
B8: Compound 287 (peptide)
peptide: Y[Aib]EGTFTSDYSI[Aib]LEKQAQ[Aib]AFVEWLIK([AEEA-AEEA-γGlu-γGlu-γGlu-γGlu-C20 diacid])GGPSEGASLRHYYNWLTRQRY-NH2
modifications: also: TFA salt
B9: Compound 297 (peptide)
peptide: Y[Aib]EGTFTSDYSI[Aib]LEKQAQ[Aib]AFVEWLIK([AEEA-AEEA-γGlu-γGlu-γGlu-γGlu-C18 diacid])GGPSEGASLRHYYNWLTRQRY-NH2
modifications: also: TFA salt
B10: Compound 298 (peptide)
peptide: Y[Aib]EGTFTSDYSI[Aib]LEKQAQ[Aib]AFVEWLIK([OEG-OEG-Glu-Glu-Glu-C18 diacid])GGPSEGASLRHYYNWLTRQRY-NH2
modifications: also: TFA salt

Molecular target: T1, human neuropeptide Y2 receptor
Assay: cell-based or functional assay

EC50 hNPY2R 0.5% hP (CreLuc) | EC50 hNPY2R 100% hP (CreLuc) | Binder
14.3 nM | 36.8 nM | B1
14.2 nM | 55.2 nM | B2
18.8 nM | 44.7 nM | B3
31.9 nM | 173 nM | B4
14.1 nM | 56.5 nM | B5
15.7 nM | 43.4 nM | B6
20 nM | 89.3 nM | B7
13.3 nM | 45.9 nM | B8
14.4 nM | 40.5 nM | B9
12.1 nM | 66.5 nM | B10

Molecular target: human GLP-1 receptor (human, UniProt P43220 24-463)
Assay: cell-based or functional assay

EC50 hGLP1R 0.5% hP (CreLuc) | EC50 hGLP1R 100% hP (CreLuc) | Binder
0.17 nM | 3.21 nM | B1
0.08 nM | 3.2 nM | B2
0.51 nM | 12.6 nM | B3
0.15 nM | 6.05 nM | B4
0.11 nM | 3.5 nM | B5
0.27 nM | 5.97 nM | B6
0.11 nM | 6.33 nM | B7
0.27 nM | 6.34 nM | B8
0.12 nM | 3.74 nM | B9
0.11 nM | 5.22 nM | B10

Molecular target: T2, human GIP receptor
Assay: cell-based or functional assay

EC50 hGIPR 0.5% hP (CreLuc) | EC50 hGIPR 100% hP (CreLuc) | Binder
0.51 nM | 2.43 nM | B1
0.21 nM | 0.89 nM | B2
0.33 nM | 0.8 nM | B3
0.33 nM | 3.87 nM | B4
1.39 nM | 1.11 nM | B5
0.42 nM | 2.03 nM | B6
0.16 nM | 1.81 nM | B7
0.34 nM | 2.42 nM | B8
0.25 nM | 0.93 nM | B9
0.13 nM | 1.27 nM | B10
